Experimental data taken from US20220220224A1 (Hoffmann-La Roche, published 2022).

B1: 9D11 IgG (antibody, V domains shown)
VH: QVQLVQSGAEVKKPGASVKVSCKASGYTFTSYYMHWVRQAPGQGLEWMGIINPSGGPTSYAQKFQGRVTMTRDTSTSTVYMELSSLRSEDTAVYYCARGDFAWLDYWGQGTLVTVSS
VL: not shown
notes: human IgG1
B2: 14E4 IgG (antibody, V domains shown)
VH: not shown
VL: EIVLTQSPGTLSLSPGERATLSCRASQSVSSSYLAWYQQKPGQAPRLLIYGASSRATGIPDRFSGSGSGTDSTLTISRLEPEDFAVYYCQQPTSSPITFGQGTKVEIK
notes: human IgG1
B3: 16D5 D52dE IgG (antibody, V domains shown)
VH: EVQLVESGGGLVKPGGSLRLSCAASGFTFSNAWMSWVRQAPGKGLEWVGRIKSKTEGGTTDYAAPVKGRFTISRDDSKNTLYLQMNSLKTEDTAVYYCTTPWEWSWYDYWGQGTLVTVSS
VL: QAVVTQEPSLTVSPGGTVTLTCGSSTGAVTTSNYANWVQEKPGQAFRGLIGGTNKRAPGTPARFSGSLLGGKAALTLSGAQPEDEAEYYCALWYSNLWVFGGGTKLTVL
notes: IgG
B4: 16D5 D52dQ IgG (antibody, V domains shown)
VH: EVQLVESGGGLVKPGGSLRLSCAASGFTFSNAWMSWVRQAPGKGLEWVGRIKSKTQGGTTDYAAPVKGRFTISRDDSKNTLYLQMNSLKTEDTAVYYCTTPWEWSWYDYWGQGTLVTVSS
VL: B3 VL
notes: IgG

What was measured:
[1] = target: T1, recombinant biotinylated monomeric Fc fusion of murine Folate Receptor 1 (mu FolR1 ECD-AcTev-Fcknob-Avitag … (murine, UniProt P0DOX5 223-449 = IgG part, biotin on the C-terminal Avi tag)); experiment: SPR Biacore, single injection on immobilized antigen-Fc
T1 construct: also called muFolR1-Fc; murine FolR1
Method in brief: (§1)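 Biacore T200 at 25 °C in HBS-EP (HEPES pH 7.4). Biotinylated FolR-Fc fusions captured on SA chip at about 300-400 RU. IgGs injected once at 500 nM for 60 s to assess cross-reactivity and specificity.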

[2] = target: T2, recombinant biotinylated monomeric Fc fusion of human Folate Receptor 3 (hu FolR3 ECD-AcTev-Fcknob-Avi tag … (human, UniProt P0DOX5 223-449 = IgG part, biotin on the C-terminal Avi tag)); experiment: as above
T2 construct: also called FolR3-Fc
Method in brief: as §1

[3] = target: T3, recombinant biotinylated monomeric Fc fusion of human Folate Receptor 2 (hu FolR2 ECD-AcTev-Fcknob-Avi tag … (human, UniProt P0DOX5 223-449 = IgG part, biotin on the C-terminal Avi tag)); experiment: as above
T3 construct: also called FolR2-Fc
Method in brief: as §1

[4] = target: T4, human FolR2 on transfected HEK cells (human, UniProt P14207 17-230); experiment: flow cytometry on transfected HEK cells
T4 construct: whole, on cells

[5] = target: T5, human FolR1 expressed on cells (HeLa, SKOV3, HT-29, transfected HEK cells) (human, UniProt P15328 25-234); experiment: flow cytometry on transfected HEK cells
T5 construct: whole, on cells; also called FolR1 on HeLa cells; human FolR1 on cells

[6] = target: T5, human FolR1 expressed on cells (HeLa, …); experiment: flow cytometry on HeLa cells
[7] = target: T6, recombinant biotinylated monomeric Fc fusion of human Folate Receptor 1 (huFolR1 ECD-AcTev-Fcknob-Avi tag … (human, UniProt P0DOX5 223-449 = IgG part, biotin on the C-terminal Avi tag)); experiment: SPR Biacore, single injection on immobilized antigen-Fc
T6 construct: also called huFolR1-Fc; human FolR1-Fc
Method in brief: as §1

[8] = target: T7, recombinant biotinylated monomeric Fc fusion of cynomolgus Folate Receptor 1 (cy FolR1 ECD-AcTev-Fcknob-Avi … (cynomolgus, UniProt P0DOX5 223-449 = IgG part, biotin on the C-terminal Avi tag)); experiment: as above
T7 construct: also called cyFolR1-Fc; cyno FolR1
Method in brief: as §1

[9] = target: T6, recombinant biotinylated monomeric Fc …; experiment: SPR Biacore, avidity (bivalent, apparent KD), antigen-Fc on SA chip
Experimental: (§2) The avidity of the interaction between the anti-FolR1 IgGs or T cell bispecifics and the recombinant folate receptors was determined as described below (Table 38).
(§3) Recombinant biotinylated monomeric Fc fusions of human, cynomolgus and murine Folate Receptor 1 (FolR1-Fc) were directly coupled on a SA chip using the standard coupling instruction (Biacore, Freiburg/Germany). The immobilization level was about 160. The anti-FolR1 IgGs or T cell bispecifics were passed at a concentration range from 3.7 to 900 nM with a flow of 30 μL/minutes through the flow cells over 180 seconds. The dissociation was monitored for 600 seconds. Bulk refractive index differences were corrected for by subtracting the response obtained on reference flow cell immobilized with recombinant biotinylated murine IL2 receptor Fc fusion. The binding curves resulting from the bivalent binding of the IgG or T cell bispecifics were approximated to a 1:1 Langmuir binding (even though it is a 1:2 binding) and fitted with that model to get an apparent KD representing the avidity of the bivalent binding. The apparent avidity constants for the interactions were derived from the rate constants of the fitting using the Bia Evaluation software (GE Healthcare).

[10] = target: T7, recombinant biotinylated monomeric Fc …; experiment: as above
Experimental: as §2, §3

[11] = target: T6, recombinant biotinylated monomeric Fc …; experiment: SPR Biacore, affinity (monovalent), antibody captured via anti-Fab
Experimental: (§4) The affinity of the interaction between the anti-FolR1 IgGs or the T cell bispecifics and the recombinant folate receptors was determined as described below (Table 39).
(§5) For affinity measurement, direct coupling of around 10000 resonance units (RU) of the anti-human Fab specific antibody (Fab capture kit, GE Healthcare) was performed on a CM5 chip at pH 5.0 using the standard amine coupling kit (GE Healthcare). Anti-FolR1 IgGs or T cell bispecifics were captured at 20 nM with a flow rate of 10 μl/min for 40 sec, the reference flow cell was left without capture. Dilution series (12.35 to 3000 nM) of human and cyno Folate Receptor 1 Fc fusion were passed on all flow cells at 30 μl/min for 240 sec to record the association phase. The dissociation phase was monitored for 300 s and triggered by switching from the sample solution to HBS-EP. The chip surface was regenerated after every cycle using a double injection of 60 sec 10 mM Glycine-HCl pH 1.5. Bulk refractive index differences were corrected for by subtracting the response obtained on the reference flow cell 1. The affinity constants for the interactions were derived from the rate constants by fitting to a 1:1 Langmuir binding using the Bia Evaluation software (GE Healthcare).

[12] = target: T7, recombinant biotinylated monomeric Fc …; experiment: as above
Experimental: as §4, §5

[13] = target: T1, recombinant biotinylated monomeric Fc …; experiment: SPR Biacore, avidity set-up, antigen-Fc on SA chip
Experimental: as §2, §3

T5 sequence (P15328 25-234): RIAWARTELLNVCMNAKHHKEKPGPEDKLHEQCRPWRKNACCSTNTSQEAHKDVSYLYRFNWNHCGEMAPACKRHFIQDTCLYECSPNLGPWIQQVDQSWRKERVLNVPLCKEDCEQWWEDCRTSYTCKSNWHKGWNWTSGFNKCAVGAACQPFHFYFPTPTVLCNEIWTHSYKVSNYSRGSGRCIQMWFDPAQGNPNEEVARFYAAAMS
T4 sequence (P14207 17-230): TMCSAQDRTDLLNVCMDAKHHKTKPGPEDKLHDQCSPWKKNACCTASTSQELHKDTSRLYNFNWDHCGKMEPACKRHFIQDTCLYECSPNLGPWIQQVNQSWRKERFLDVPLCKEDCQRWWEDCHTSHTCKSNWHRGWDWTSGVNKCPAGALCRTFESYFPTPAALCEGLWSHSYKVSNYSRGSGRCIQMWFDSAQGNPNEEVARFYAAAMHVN

Binder | binding result [2] | binding result [3] | Kd [9] | koff [9] | kon [9] | Kd [10] | koff [10] | kon [10] | Kd [11] | koff [11] | kon [11] | Kd [12] | koff [12] | kon [12] | binding result [13] | other results
B1 | no binding (tested: 500 nM) | no binding (tested: 500 nM) |  |  |  |  |  |  |  |  |  |  |  |  |  | binding result [1]: no binding (tested: 500 nM); binding result [4]: no binding; binding result [5]: binds
B2 | no binding (tested: 500 nM) | no binding (tested: 500 nM) |  |  |  |  |  |  |  |  |  |  |  |  |  | binding result [6]: no binding; binding result [7]: no binding (tested: 500 nM); binding result [8]: no binding (tested: 500 nM)
B3 |  |  | 3.4 nM | 0.000545 s⁻¹ | 162000 M⁻¹ s⁻¹ | 2.5 nM | 0.00747 s⁻¹ | 2.98e+06 M⁻¹ s⁻¹ | 95 nM | 0.00227 s⁻¹ | 24000 M⁻¹ s⁻¹ | 530 nM | 0.012 s⁻¹ | 22500 M⁻¹ s⁻¹ | no binding | 
B4 |  |  | 9.2 nM | 0.000775 s⁻¹ | 84000 M⁻¹ s⁻¹ | 5 nM | 0.00204 s⁻¹ | 412000 M⁻¹ s⁻¹ | 230 nM | 0.00162 s⁻¹ | 6970 M⁻¹ s⁻¹ | 410 nM | 0.00332 s⁻¹ | 8200 M⁻¹ s⁻¹ | no binding | 
